Experiments:
[1] = target: rat CD47 on rat red blood cells (rat) (UniProt P97829); assay: flow cytometry on rat RBCs
[2] = target: human CD47 on human red blood cells (human) (UniProt Q08722); assay: flow cytometry on human RBCs
[3] = target: mouse CD47 on mouse red blood cells (mouse) (UniProt Q61735); assay: flow cytometry on mouse RBCs
[4] = target: cynomolgus CD47 on cynomolgus red blood cells (cynomolgus); assay: flow cytometry on cynomolgus RBCs

mouse CD47 on mouse red blood cells (mouse), sequence (Q61735 19-303): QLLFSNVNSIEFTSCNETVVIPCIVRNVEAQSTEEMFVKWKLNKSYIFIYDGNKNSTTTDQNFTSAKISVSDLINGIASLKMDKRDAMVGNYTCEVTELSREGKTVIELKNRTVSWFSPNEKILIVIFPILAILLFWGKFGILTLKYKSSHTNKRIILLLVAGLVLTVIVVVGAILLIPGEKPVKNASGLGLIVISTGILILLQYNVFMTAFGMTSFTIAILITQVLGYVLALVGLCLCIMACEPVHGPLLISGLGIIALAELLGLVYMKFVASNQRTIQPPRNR
rat CD47 on rat red blood cells (rat), sequence (P97829 19-303): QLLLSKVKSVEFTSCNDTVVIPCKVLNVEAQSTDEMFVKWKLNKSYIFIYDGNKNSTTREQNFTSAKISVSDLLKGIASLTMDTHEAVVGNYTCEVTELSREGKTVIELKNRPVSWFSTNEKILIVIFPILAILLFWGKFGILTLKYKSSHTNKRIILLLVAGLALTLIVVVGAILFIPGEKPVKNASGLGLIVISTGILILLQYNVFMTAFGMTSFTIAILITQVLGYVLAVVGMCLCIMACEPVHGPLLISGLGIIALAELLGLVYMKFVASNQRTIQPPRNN

Isotype control (antibody) gave an MFI [1] of 3.33, an MFI [2] of 3.65 and an MFI [3] of 3.21. The MFI [4] was 3.95.

— patent US20250277031A1
